{
  "source": "patent US10273304B2",
  "about": "“Biomarker profiles for predicting outcomes of cancer therapy with ERBB3 inhibitors and/or chemotherapies” (Merrimack Pharmaceuticals, Inc., priority 2013, dated 2019)",
  "molecules": {"B1": {"name": "MM-121: anti-ErbB3 monoclonal antibody having VH and VL sequences as shown in SEQ ID NOs: 1 and 2 (antibody, V domains shown)", "VH": "EVQLLESGGGLVQPGGSLRLSCAASGFTFSHYVMAWVRQAPGKGLEWVSSISSSGGWTLYADSVKGRFTISRDNSKNTLYLQMNSLRAEDTAVYYCTRGLKMATIFDYWGQGTLVTVSS", "VL": "QSALTQPASVSGSPGQSITISCTGTSSDVGSYNVVSWYQQHPGKAPKLIIYEVSQRPSGVSNRFSGSKSGNTASLTISGLQTEDEADYYCCSYAGSSIFVIFGGGTKVTVL"}},
  "key": {"[1]": {"system": "EGFR-wild-type non-small cell lung cancer (NSCLC)", "text": "A group participating in the study was comprised of 132 patients with wild-type epidermal growth factor receptor (EGFR) who progressed on ≥1 platinum-based standard of care therapy and were EGFR tyrosine kinase inhibitor (TKI)-naïve. […] Data were collected at 10+ months.\nTherefore, in this Example, Biomarker positive (BM+) is used interchangeably with Heregulin positive (HRG+). BM+ patients were defined as having detectable HRG mRNA by RNA-ISH (RNA in situ hybridization) as described above in Example 1."}, "[2]": {"system": "locally advanced or metastatic ER+ and/or PR+, HER2 negative breast cancer", "experiment": "Randomized, double-blind phase 2 trial of exemestane +/- MM-121, breast cancer", "assay_type": "in vivo, human"}, "[3]": {"system": "advanced, platinum-resistant ovarian cancer", "experiment": "Clinical trial, ovarian cancer: paclitaxel with or without MM-121", "assay_type": "in vivo, human", "conditions": "for HR (PFS, treatment vs control): paclitaxel+MM-121 vs paclitaxel, data at 60 weeks", "method": "A clinical trial was performed that was designed to allow, inter alia, determination of associations between biomarker profiles and clinical responses. Biomarker data were measured in pre-treatment biopsies and (when available) in archived tumor samples. Results pertaining to predictive biomarkers measured in pre-treatment biopsies are described herein.\nFour types of assay (each set forth above) were used to assess the six primary biomarkers assessed in this study (EGFR, ErbB2, ErbB3, ErbB4, HRG and BTC):\nIn total, six primary biomarkers were measured using 15 assays. For the 5 chromogenic assays (qIHC and RNA-ISH), two different overall scores were used: composite score and top-10 score. Accordingly, 20 different variables were assessed at this stage. A Cox proportional hazard model was used to rank the biomarkers. This method determines if PFS varies with biomarker values differently in the treatment arm relative to the control arm. A P-value cutoff of 0.4 was used to determine which biomarkers would be prioritized for subsequent bivariate analyses.\nBased on these two thresholds, a biomarker profile positive (BM+) subpopulation is defined for subsequent analyses as: (ErbB2 levels ≤log10 5.1) AND (HRG score ≥1) (“ErbB2 low” AND “HRG positive”). Accordingly, a biomarker profile negative (BM−) subpopulation is defined as (ErbB2 levels >log10 5.1) OR (HRG score <1) This definition results in a BM+prevalence of 34% in the clinical trial population.\nIn FIG. 8G (progression free survival at 10+ months) and FIG. 8H (overall survival at 10+ months), the treatment arm is represented by a blue line and the control arm is represented by a black line."}, "[4]": {"target": "ErbB3 (Homo sapiens, UniProt P21860)", "experiment": "Pre-clinical data and computational modeling: MM-121 potency versus ErbB2 level", "conditions": "when ErbB2 levels rise above about 100,000 to about 200,000 receptors per cell"}, "[5]": {"conditions": "BM+ (heregulin+) patients, FIG. 11"}, "[6]": {"conditions": "group ErbB2 < 5.1 (qIHC) & HRG > -5"}},
  "data": [
    {"molecule": "C#Cc1cccc(Nc2ncnc3cc(OCCOC)c(OCCOC)cc23)c1", "note": "[erlotinib]", "values": [
      {"measurement": "best overall response: complete response (CR)", "setting": "[1]; [5]", "value": "none"},
      {"measurement": "best overall response: partial response (PR)", "setting": "[1]; [5]", "value": 6.7, "unit": "%"},
      {"measurement": "best overall response: progressive disease (PD)", "setting": "[1]; [5]", "value": 53.3, "unit": "%"},
      {"measurement": "PFS of BM- (heregulin-) patients compared with BM+ (heregulin+) patients", "setting": "[1]; patients treated with erlotinib alone, FIG. 12C", "value": "much longer PFS"}
    ]},
    {"molecule": "C=C1C[C@@H]2[C@H](CC[C@]3(C)C(=O)CC[C@@H]23)[C@@]2(C)C=CC(=O)C=C12", "note": "[exemestane, 6-methylenandrosta-1,4-diene-3,17-dione, reference compound]", "values": [
      {"measurement": "PFS of BM- (heregulin-) patients compared with BM+ (heregulin+) patients", "setting": "[2]; patients treated with exemestane alone, FIG. 10E", "value": "much longer PFS"}
    ]},
    {"molecule": "CC(=O)O[C@H]1C(=O)[C@@]2(C)[C@H]([C@H](OC(=O)c3ccccc3)[C@]3(O)C[C@H](OC(=O)[C@H](O)[C@@H](NC(=O)c4ccccc4)c4ccccc4)C(C)=C1C3(C)C)[C@]1(OC(C)=O)CO[C@@H]1C[C@@H]2O", "note": "[paclitaxel, Paclitaxel, reference compound]", "values": [
      {"measurement": "PFS of BM- (heregulin-) patients compared with BM+ (heregulin+) patients", "setting": "[3]; patients treated with paclitaxel alone, FIG. 8I", "value": "much longer PFS"}
    ]},
    {"molecule": "B1", "values": [
      {"measurement": "HR (trt:ctrl)", "setting": "[3]; BM+ (HER2 low & HRG+), subgroup ErbB4 score 0", "value": 0.13},
      {"measurement": "HR (trt:ctrl)", "setting": "[3]; BM+, subgroup ErbB4 score >=1", "value": 0.65},
      {"measurement": "HR (trt:ctrl)", "setting": "[3]; BM- (HER2 low & HRG+ not met), subgroup ErbB4 score 0", "value": 1.05},
      {"measurement": "HR (trt:ctrl)", "setting": "[3]; BM-, subgroup ErbB3 score >=2", "value": 0.86},
      {"measurement": "cumulative HR", "setting": "[3]; all patients with BM measurements, prevalence=100%", "value": "≈ 1"},
      {"measurement": "HR (PFS, treatment vs control)", "setting": "[3]; BM+ subpopulation (ErbB2 <=log10 5.1 AND HRG score >=1)", "value": 0.37},
      {"measurement": "HR (PFS, treatment vs control)", "setting": "[3]; BM- subpopulation (ErbB2 >log10 5.1 OR HRG score <1)", "value": 1.54},
      {"measurement": "potency as a function of ErbB2 level", "setting": "[4]", "value": "loses potency"},
      {"measurement": "estimated HR in the BM+ group, sensitivity analysis", "setting": "[2]; Cox model with additive terms for treatment, biomarker groups and clinical covariates", "value": 0.38},
      {"measurement": "HR, BM population", "setting": "[2]; MM-121+exemestane vs exemestane, no selection, N=115", "value": 0.75},
      {"measurement": "HR, BM negative", "setting": "[2]; group ErbB2 < 5.1 (HCT)", "value": 3.00},
      {"measurement": "HR, BM population", "setting": "[2]; group ErbB2 < 5.1 (HCT)", "value": 0.82},
      {"measurement": "HR, BM positive", "setting": "[2]; group ErbB2 < 5.1 (HCT)", "value": 0.62},
      {"measurement": "HR, BM population", "setting": "[2]; group ErbB2 < 5.1 (HCT) & HRG > -5, 55 patients", "value": 0.66},
      {"measurement": "HR, BM positive", "setting": "[2]; group ErbB2 < 5.1 (HCT) & HRG > -5, PFS at about 60 weeks, N=17", "value": 0.32},
      {"measurement": "HR, BM negative", "setting": "[2]; group ErbB2 < 5.1 (HCT) & HRG > -5, PFS at about 60 weeks, N=38", "value": 0.89},
      {"measurement": "HR, BM negative", "setting": "[2]; group ErbB2 < 5.1 (qIHC)", "value": 3.00},
      {"measurement": "HR, BM population", "setting": "[2]; group ErbB2 < 5.1 (qIHC)", "value": 1.16},
      {"measurement": "HR, BM positive", "setting": "[2]; group ErbB2 < 5.1 (qIHC)", "value": 0.84},
      {"measurement": "HR, BM negative", "setting": "[2]; [6]", "value": 1.30},
      {"measurement": "HR, BM population", "setting": "[2]; [6]", "value": 0.86},
      {"measurement": "HR, BM positive", "setting": "[2]; [6]", "value": 0.32},
      {"measurement": "HR, BM negative", "setting": "[2]; group HRG > -5", "value": 0.99},
      {"measurement": "HR, BM positive", "setting": "[2]; group HRG > -5", "value": 0.35},
      {"measurement": "HR, BM population", "setting": "[2]; group HRG > -5 (RT-PCR), all patients with this biomarker", "value": 0.68}
    ]}
  ]
}
